Test system: human platelets
Test: Platelet adhesion assay (pNPP test)
Type: cell-based
Details: human citrated PRP 45 min at 37° C.; PU = Carbothane PC3585A; PPG 468 and 728; fibrinogen-coated wells positive control; FIG. 10
Method: • Blood collection tubes: sodium citrate Vacutainer tubes (3.2% citrate, BD Biosciences) • Non-binding 24-well and 96-well plates for suspension culture (polystyrene, Greiner Bio-One) • Spectrophotometer Spectra max PLUS 384 (Molecular Devices) • Human Fibrinogen ref 341576 (Calbiochem) • 2×pNPP buffer (0.1M citrate buffer pH5.4, 10 mM p-nitrophenylphosphate, 2% Triton X-100)
Platelet adhesion on surfaces is analysed by using the p-NitroPhenil Phosphate (pNPP) test. Values obtained with this test are directly proportional to the number of platelets adhering to the surface. The pNPP test measures the levels of alkaline and acid phosphatases released upon platelet lysis. The hydrolysis of pNPP, a substrate of these phosphatases, produces p-nitrophenol, which has a maximal absorbance at 405 nm and is proportional to the amount of platelets bound to the surface. • 1. […] 100 μl is transferred in a 96-well plate before measuring the absorbance at 405 nm in a spectrophotometer. • 10. Background readings from the PPP incubation is subtracted from the PRP reads. • 11. Numbers of platelets are determined from a calibration curve performed with increasing platelet densities. e. […]
Platelet adhesion was analysed by using the p-NitroPhenil Phosphate (pNPP) assay as described in the protocol of testing of example 10 at point b

fibrinogen
human platelet adhesion: adhesion was observed

Source: patent publication US20240139371A1, “NEW ANTIMICROBIAL AND ANTITHROMBOGENIC MEDICAL DEVICE” (UNIVERSITÉ DE LIÈGE, priority 2021, published 2024)
